Assay results published in the supplement of paper PMC10724198.
± gives the standard deviation of the averaged measurements.

The sequences below were run on Saccharomyces cerevisiae (assay: protein stability index of tFT-peptide fusion (C-terminal peptide) (PSI (0-1 scale)); higher = more stable (slower turnover)). Settings: genetic background: wild type; temperature: 30 C.
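Further: PSI is a weighted mean of sequencing reads over stability bins, variants kept only with over 10 reads, mCherry proximal and sfGFP distal, peptide attached via GGGS linker.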

Row | Sequence | protein stability index
1 | LMVCQKPYCMRI | 0.678 ± 0.0014
2 | MRRTFQHQGRAN | 0.676 ± 0.031
3 | ERHTASGHLLFV | 0.729 ± 0.14
4 | GSRAWERSERVR | 0.649 ± 0.084
5 | PPPSPSPPPAPG | 0.6941 ± 0.006
6 | RNLHVSMGKCSP | 0.722 ± 0.21
7 | WNPHFHALSWRL | 0.684 ± 0.019
8 | KTRQSNAPRRTF | 0.707 ± 0.0091
9 | GGGRPDRPQRAI | 0.741 ± 0.026
10 | PPPALEPSPKEL | 0.781 ± 0.057
11 | CGRFGRGVDLGN | 0.687 ± 0.02
12 | GCRSQRSDSLMM | 0.644 ± 0.028
13 | HRILILSGLRAG | 0.626 ± 0.041
14 | SLFSVLSPPYPS | 0.653 ± 0.032
15 | PPAPPFPAPPPR | 0.628 ± 0.028
16 | LRLCPAPYIPVL | 0.591 ± 0.012
17 | VVWSGRWKGLRV | 0.621 ± 0.12
18 | FGGRGRVASRLV | 0.763 ± 0.086
19 | VPGWRVGGARSV | 0.746 ± 0.048
20 | LSGLLGGGAGTL | 0.678 ± 0.013
21 | SPLLYPPPSTSI | 0.715 ± 0.042
22 | KGHGTTCVGRQV | 0.677 ± 0.04
23 | GVMTGGPPGGAG | 0.642 ± 0.04
24 | SPPLHPPPPFPL | 0.769 ± 0.047
25 | ETHRANTRMERL | 0.726 ± 0.049

Row | Sequence | protein stability index
26 | LLRGDVVALRAH | 0.618 ± 0.052
27 | ILNNSDRAYTIQ | 0.731 ± 0.04
28 | HGNFLTALVGRI | 0.669 ± 0.046
29 | VLTFVWLVGQGF | 0.581 ± 0.048
30 | LLDLYTLSRLDP | 0.754 ± 0.043
31 | PSPSAPPPLSPL | 0.546 ± 0.052
32 | SADILGLPRYLT | 0.656 ± 0.023
33 | LCRFPSSPQLPS | 0.7236 ± 0.0071
34 | LAPSPTSRPIKC | 0.677 ± 0.018
35 | APFLDRSSPRSF | 0.707 ± 0.15
36 | PLSPPLLPPTTL | 0.706 ± 0.086
37 | GHGGHIVRTSSY | 0.7 ± 0.023
38 | IVEKAVAKGIKE | 0.6767 ± 0.005
39 | SSRGVTRRRLRE | 0.724 ± 0.15
40 | GGRQTAVSGLLL | 0.685 ± 0.017
41 | SLRILFDLRISL | 0.605 ± 0.031
42 | LYDQTSQDRRVF | 0.6974 ± 0.004
43 | FQPPARATFLPV | 0.668 ± 0.031
44 | SLPSPSPPSHPL | 0.705 ± 0.033
45 | VCGSRAVRRTEL | 0.712 ± 0.07
46 | QLHTTENHHRRL | 0.792 ± 0.032
47 | VFNLSIPLPSFP | 0.707 ± 0.046
48 | ELLTCSSSVMLL | 0.799 ± 0.026
49 | TPRYALVRHHPR | 0.695 ± 0.098
50 | VVVGSITRLGLW | 0.6908 ± 0.00074

Row | Sequence | protein stability index
51 | KMYKRPNYQKTK | 0.64 ± 0.024
52 | PIPPPPPPPSSP | 0.699 ± 0.0086
53 | AAASWRVRIGRG | 0.7425 ± 0.004
54 | GGCEWWSWGRGG | 0.729 ± 0.041
55 | GGVSVVTRVAPR | 0.658 ± 0.016
56 | EARRGTAGGQKK | 0.626 ± 0.039
57 | RYRSQNNKKLEE | 0.658 ± 0.024
58 | GRFCGGAVSGGM | 0.634 ± 0.041
59 | HPKPNLPPAAVH | 0.6854 ± 0.0049
60 | NTSRSKKKVNSK | 0.704 ± 0.035
61 | NIKIILPWNPPE | 0.667 ± 0.013
62 | LLVLSTVFNYPI | 0.655 ± 0.071
63 | SASPEGTQRSPW | 0.761 ± 0.14
64 | RTSRKKMLNFKY | 0.66688 ± 0.00034
65 | RPLPLRLDGSGS | 0.719 ± 0.047
66 | WLVRRVSSGQFG | 0.653 ± 0.062
67 | KKKRKKKNRGKK | 0.6789 ± 0.004
68 | IRSLRWVRRESV | 0.706 ± 0.1
69 | DGGRGQGMLGGS | 0.662 ± 0.063
70 | PMIENQQIDKTN | 0.649 ± 0.0095
71 | YSNCPQPRVISD | 0.6 ± 0.063
72 | TVACILPLAQSL | 0.706 ± 0.075
73 | VVCRTSPVCLGK | 0.672 ± 0.019
